How the values were obtained:
[1] = test system: HeLa Kyoto; experiment: solubility in G1/S (NP-40 vs SDS abundance) (log2 ratio); higher = more soluble; details: cell cycle stage: G1/S
[2] = test system: HeLa Kyoto; experiment: solubility change mitosis vs G1/S (difference of NP-40 vs SDS log2 ratios) (log2 ratio difference); higher = more soluble in mitosis
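Wherever solubility change mitosis vs G1/S (difference of NP-40 vs SDS log2 ratios) is given: synchronized HeLa Kyoto cells (double thymidine block for G1/S, nocodazole release for mitosis), protein amounts in NP-40 versus SDS lysates quantified by mass spectrometry, three biological replicates.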
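Wherever solubility in G1/S (NP-40 vs SDS abundance) is given: HeLa Kyoto cells arrested at G1/S by double thymidine block, proteins quantified by TMT10plex mass spectrometry in mild NP-40 versus SDS extracts, three biological replicates.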

MVAMAEAEAGVAVEVRGLPPAVPDELLTLYFENRRRSGGGPVLSWQRLGCGGVLTFREPADAERVLAQADHELHGAQLSLRPAPPRAPARLLLQGLPPGTTPQRLEQHVQALLRASGLPVQPCCALASPRPDRALVQLPKPLSEADVRVLEEQAQNLGLEGTLVSLARVPQARAVRVVGDGASVDLLLLELYLENERRSGGGPLEDLQRLPGPLGTVASFQQWQVAERVLQQEHRLQGSELSLVPHYDILEPEELAENTSGGDHPSTQGPRATKHALLRTGGLVTALQGAGTVTMGSGEEPGQSGASLRTGPMVQGRGIMTTGSGQEPGQSGTSLRTGPMGSLGQAEQVSSMPMGSLEHEGLVSLRPVGLQEQEGPMSLGPVGSAGPVETSKGLLGQEGLVEIAMDSPEQEGLVGPMEITMGSLEKAGPVSPGCVKLAGQEGLVEMVLLMEPGAMRFLQLYHEDLLAGLGDVALLPLEGPDMTGFRLCGAQASCQAAEEFLRSLLGSISCHVLCLEHPGSARFLLGPEGQHLLQGLEAQFQCVFGTERLATATLDTGLEEVDPTEALPVLPGNAHTLWTPDSTGGDQEDVSLEEVRELLATLEGLDLDGEDWLPRELEEEGPQEQPEEEVTPGHEEEEPVAPSTVAPRWLEEEAALQLALHRSLEPQGQVAEQEEAAALRQALTLSLLEQPPLEAEEPPDGGTDGKAQLVVHSAFEQDVEELDRALRAALEVHVQEETVGPWRRTLPAELRARLERCHGVSVALRGDCTILRGFGAHPARAARHLVALLAGPWDQSLAFPLAASGPTLAGQTLKGPWNNLERLAENTGEFQEVVRAFYDTLDAARSSIRVVRVERVSHPLLQQQYELYRERLLQRCERRPVEQVLYHGTTAPAVPDICAHGFNRSFCGRNATVYGKGVYFARRASLSVQDRYSPPNADGHKAVFVARVLTGDYGQGRRGLRAPPLRGPGHVLLRYDSAVDCICQPSIFVIFHDTQALPTHLITCEHVPRASPDDPSGLPGRSPDT [PARP10]
solubility in G1/S (log2) [1]: 0.14
solubility change mitosis (log2) [2]: 0.0134

MVARRRKCAARDPEDRIPSPLGYAAIPIKFSEKQQASHYLYVRAHGVRQGTKSTWPQKRTLFVLNVPPYCTEESLSRLLSTCGLVQSVELQEKPDLAESPKESRSKFFHPKPVPGFQVAYVVFQKPSGVSAALALKGPLLVSTESHPVKSGIHKWISDYADSVPDPEALRVEVDTFMEAYDQKIAEEEAKAKEEEGVPDEEGWVKVTRRGRRPVLPRTEAASLRVLERERRKRSRKELLNFYAWQHRESKMEHLAQLRKKFEEDKQRIELLRAQRKFRPY [RRP7A]
solubility in G1/S (log2) [1]: -1.58
solubility change mitosis (log2) [2]: 1.02

MVGRSRRRGAAKWAAVRAKAGPTLTDENGDDLGLPPSPGDTSYYQDQVDDFHEARSRAALAKGWNEVQSGDEEDGEEEEEEVLALDMDDEDDEDGGNAGEEEEEENADDDGGSSVQSEAEASVDPSLSWGQRKKLYYDTDYGSKSRGRQSQQEAEEEEREEEEEAQIIQRRLAQALQEDDFGVAWVEAFAKPVPQVDEAETRVVKDLAKVSVKEKLKMLRKESPELLELIEDLKVKLTEVKDELEPLLELVEQGIIPPGKGSQYLRTKYNLYLNYCSNISFYLILKARRVPAHGHPVIERLVTYRNLINKLSVVDQKLSSEIRHLLTLKDDAVKKELIPKAKSTKPKPKSVSKTSAAACAVTDLSDDSDFDEKAKLKYYKEIEDRQKLKRKKEENSTEEQALEDQNAKRAITYQIAKNRGLTPRRKKIDRNPRVKHREKFRRAKIRRRGQVREVRKEEQRYSGELSGIRAGVKKSIKLK [UTP3]
solubility in G1/S (log2) [1]: -1.76
solubility change mitosis (log2) [2]: 1.04

MVHAFLIHTLRAPNTEDTGLCRVLYSCVFGAEKSPDDPRPHGAERDRLLRKEQILAVARQVESMCRLQQQASGRPPMDLQPQSSDEQVPLHEAPRGAFRLAAENPFQEPRTVVWLGVLSLGFALVLDAHENLLLAEGTLRLLTRLLLDHLRLLAPSTSLLLRADRIEGILTRFLPHGQLLFLNDQFVQGLEKEFSAAWPR [AP5S1]
solubility in G1/S (log2) [1]: -0.269
solubility change mitosis (log2) [2]: -0.153

MVKLFIGNLPREATEQEIRSLFEQYGKVLECDIIKNYGFVHIEDKTAAEDAIRNLHHYKLHGVNINVEASKNKSKASTKLHVGNISPTCTNQELRAKFEEYGPVIECDIVKDYAFVHMERAEDAVEAIRGLDNTEFQGKRMHVQLSTSRLRTAPGMGDQSGCYRCGKEGHWSKECPVDRTGRVADFTEQYNEQYGAVRTPYTMGYGESMYYNDAYGALDYYKRYRVRSYEAVAAAAAASAYNYAEQTMSHLPQVQSTTVTSHLNSTSVDPYDRHLLPNSGAAATSAAMAAAAATTSSYYGRDRSPLRRAAAMLPTVGEGYGYGPESELSQASAATRNSLYDMARYEREQYVDRARYSAF [RBM4B]
solubility in G1/S (log2) [1]: 0.227
solubility change mitosis (log2) [2]: -0.335

MVLKAFFPTCCVSTDSGLLVGRWVPEQSSAVVLAVLHFPFIPIQVKQLLAQVRQASQVGVAVLGTWCHCRQEPEESLGRFLESLGAVFPHEPWLRLCRERGGTFWSCEATHRQAPTAPGAPGEDQVMLIFYDQRQVLLSQLHLPTVLPDRQAGATTASTGGLAAVFDTVARSEVLFRSDRFDEGPVRLSHWQSEGVEASILAELARRASGPICLLLASLLSLVSAVSACRVFKLWPLSFLGSKLSTCEQLRHRLEHLTLIFSTRKAENPAQLMRKANTVASVLLDVALGLMLLSWLHGRSRIGHLADALVPVADHVAEELQHLLQWLMGAPAGLKMNRALDQVLGRFFLYHIHLWISYIHLMSPFVEHILWHVGLSACLGLTVALSLLSDIIALLTFHIYCFYVYGARLYCLKIHGLSSLWRLFRGKKWNVLRQRVDSCSYDLDQLFIGTLLFTILLFLLPTTALYYLVFTLLRLLVVAVQGLIHLLVDLINSLPLYSLGLRLCRPYRLADKPTALQPRGAHLPPPQLWLPPQALLGRPVPQAVPWGAHLPLEAERGQAGLRELLARLAPPHGHSQPSALPGWHQLSWRMSCALWTLLCAPEHGRPCYHTLGLEVIGSEQMWGWPARLAALHHWHCLPWDPLPTCCGHHGGEHSNPRCPEHCPMPTLCTQVQRVRPPQQPQVEGWSPWGLPSGSALAVGVEGPCQDEPPSPRHPLAPSAEQHPASGGLKQSLTPVPSGPGPSLPEPHGVYLRMFPGEVAL [PIGQ]
solubility in G1/S (log2) [1]: -0.0206
solubility change mitosis (log2) [2]: -0.119

MVMADGPRHLQRGPVRVGFYDIEGTLGKGNFAVVKLGRHRITKTEVAIKIIDKSQLDAVNLEKIYREVQIMKMLDHPHIIKLYQVMETKSMLYLVTEYAKNGEIFDYLANHGRLNESEARRKFWQILSAVDYCHGRKIVHRDLKAENLLLDNNMNIKIADFGFGNFFKSGELLATWCGSPPYAAPEVFEGQQYEGPQLDIWSMGVVLYVLVCGALPFDGPTLPILRQRVLEGRFRIPYFMSEDCEHLIRRMLVLDPSKRLTIAQIKEHKWMLIEVPVQRPVLYPQEQENEPSIGEFNEQVLRLMHSLGIDQQKTIESLQNKSYNHFAAIYFLLVERLKSHRSSFPVEQRLDGRQRRPSTIAEQTVAKAQTVGLPVTMHSPNMRLLRSALLPQASNVEAFSFPASGCQAEAAFMEEECVDTPKVNGCLLDPVPPVLVRKGCQSLPSNMMETSIDEGLETEGEAEEDPAHAFEAFQSTRSGQRRHTLSEVTNQLVVMPGAGKIFSMNDSPSLDSVDSEYDMGSVQRDLNFLEDNPSLKDIMLANQPSPRMTSPFISLRPTNPAMQALSSQKREVHNRSPVSFREGRRASDTSLTQGIVAFRQHLQNLARTKGILELNKVQLLYEQIGPEADPNLAPAAPQLQDLASSCPQEEVSQQQESVSTLPASVHPQLSPRQSLETQYLQHRLQKPSLLSKAQNTCQLYCKEPPRSLEQQLQEHRLQQKRLFLQKQSQLQAYFNQMQIAESSYPQPSQQLPLPRQETPPPSQQAPPFSLTQPLSPVLEPSSEQMQYSPFLSQYQEMQLQPLPSTSGPRAAPPLPTQLQQQQPPPPPPPPPPRQPGAAPAPLQFSYQTCELPSAASPAPDYPTPCQYPVDGAQQSDLTGPDCPRSPGLQEAPSSYDPLALSELPGLFDCEMLDAVDPQHNGYVLVN [SIK2]
solubility in G1/S (log2) [1]: 0.0463
solubility change mitosis (log2) [2]: -0.0513

MVPGARGGGALARAAGRGLLALLLAVSAPLRLQAEELGDGCGHLVTYQDSGTMTSKNYPGTYPNHTVCEKTITVPKGKRLILRLGDLDIESQTCASDYLLFTSSSDQYGPYCGSMTVPKELLLNTSEVTVRFESGSHISGRGFLLTYASSDHPDLITCLERASHYLKTEYSKFCPAGCRDVAGDISGNMVDGYRDTSLLCKAAIHAGIIADELGGQISVLQRKGISRYEGILANGVLSRDGSLSDKRFLFTSNGCSRSLSFEPDGQIRASSSWQSVNESGDQVHWSPGQARLQDQGPSWASGDSSNNHKPREWLEIDLGEKKKITGIRTTGSTQSNFNFYVKSFVMNFKNNNSKWKTYKGIVNNEEKVFQGNSNFRDPVQNNFIPPIVARYVRVVPQTWHQRIALKVELIGCQITQGNDSLVWRKTSQSTSVSTKKEDETITRPIPSEETSTGINITTVAIPLVLLVVLVFAGMGIFAAFRKKKKKGSPYGSAEAQKTDCWKQIKYPFARHQSAEFTISYDNEKEMTQKLDLITSDMADYQQPLMIGTGTVTRKGSTFRPMDTDAEEAGVSTDAGGHYDCPQRAGRHEYALPLAPPEPEYATPIVERHVLRAHTFSAQSGYRVPGPQPGHKHSLSSGGFSPVAGVGAQDGDYQRPHSAQPADRGYDRPKAVSALATESGHPDSQKPPTHPGTSDSYSAPRDCLTPLNQTAMTALL [DCBLD1]
solubility in G1/S (log2) [1]: 0.0249
solubility change mitosis (log2) [2]: -0.0211

MVRDSMAAAFRPSNRVLLQALQILVYPGVGGSGSVSCRCPLGAKRYLLTDNVVKLKEFQQKKVAVACNLSGTKETYFRNLKKKLTQNKLILKGELITLLHLCESRDHVELAKNVIYRYHAENKNFTLGEYKFGPLFVRLCYELDLEESAVELMKDQHLRGFFSDSTSFNILMDMLFIKGKYKSALQVLIEMKNQDVKFTKDTYVLAFAICYKLNSPESFKICTTLREEALLKGEILSRRASCFAVALALNQNEMAKAVSIFSQIMNPESIACINLNIIIHIQSNMLENLIKTLKNAAEGNLSKFVKRHVFSEEVLAKVREKVKDVPALVAKFDEIYGTLHITGQVTTDSLDAVLCHTPRDRKSHTLLLNKRMVSRRTFQPLSQSLLAE [PTCD2]
solubility in G1/S (log2) [1]: -0.0152
solubility change mitosis (log2) [2]: 0.106

MVRKLKFHEQKLLKQVDFLNWEVTDHNLHELRVLRRYRLQRREDYTRYNQLSRAVRELARRLRDLPERDQFRVRASAALLDKLYALGLVPTRGSLELCDFVTASSFCRRRLPTVLLKLRMAQHLQAAVAFVEQGHVRVGPDVVTDPAFLVTRSMEDFVTWVDSSKIKRHVLEYNEERDDFDLEA [IMP3]
solubility in G1/S (log2) [1]: -2.11
solubility change mitosis (log2) [2]: 1.1

MVVPSLKLQDLIEEIRGAKTQAQEREVIQKECAHIRASFRDGDPVHRHRQLAKLLYVHMLGYPAHFGQMECLKLIASSRFTDKRVGYLGAMLLLDERHDAHLLITNSIKNDLSQGIQPVQGLALCTLSTMGSAEMCRDLAPEVEKLLLQPSPYVRKKAILTAVHMIRKVPELSSVFLPPCAQLLHERHHGILLGTITLITELCERSPAALRHFRKVVPQLVHILRTLVTMGYSTEHSISGVSDPFLQVQILRLLRILGRNHEESSETMNDLLAQVATNTDTSRNAGNAVLFETVLTIMDIRSAAGLRVLAVNILGRFLLNSDRNIRYVALTSLLRLVQSDHSAVQRHRPTVVECLRETDASLSRRALELSLALVNSSNVRAMMQELQAFLESCPPDLRADCASGILLAAERFAPTKRWHIDTILHVLTTAGTHVRDDAVANLTQLIGGAQELHAYSVRRLYNALAEDISQQPLVQVAAWCIGEYGDLLLAGNCEEIEPLQVDEEEVLALLEKVLQSHMSLPATRGYALTALMKLSTRLCGDNNRIRQVVSIYGSCLDVELQQRAVEYDTLFRKYDHMRAAILEKMPLVERDGPQADEEAKESKEAAQLSEAAPVPTEPQASQLLDLLDLLDGASGDVQHPPHLDPSPGGALVHLLDLPCVPPPPAPIPDLKVFEREGVQLNLSFIRPPENPALLLITITATNFSEGDVTHFICQAAVPKSLQLQLQAPSGNTVPARGGLPITQLFRILNPNKAPLRLKLRLTYDHFHQSVQEIFEVNNLPVESWQ [AP1G2]
solubility in G1/S (log2) [1]: -0.0347
solubility change mitosis (log2) [2]: -0.154

— the supplement of paper PMC5998384
